Legend:
[1] = molecular target: SARS-CoV-2 RBD tagged with a C-terminal Fc tag (SARS-CoV-2; strain not stated, ancestral (Wuhan-Hu-1) assumed) (UniProt P0DTC2); assay: BLI
[2] = molecular target: SARS-CoV-2 RBD tagged with a C-terminal Fc tag (SARS-CoV-2) (UniProt P0DTC2); assay: BLI

| Substance | Kd [1] | koff [1] | kon [1] | Kd [2] | koff [2] | kon [2] |
| --- | --- | --- | --- | --- | --- | --- |
| (Nb1C)2, Tet-linked homodimer of VHH72 with Tet3.0 at the C terminus | 132 nM | 0.0064 s⁻¹ | 48100 M⁻¹ s⁻¹ | – | – | – |
| (Nb1N)2, Tet-linked homodimer of VHH72 with Tet3.0 at the N terminus | – | – | – | 13.8 nM | 0.00119 s⁻¹ | 85800 M⁻¹ s⁻¹ |
| (Nb1N)3, Tet-linked homotrimer of VHH72 with Tet3.0 at the N terminus | – | – | – | 2.31 nM | 0.000566 s⁻¹ | 246000 M⁻¹ s⁻¹ |
| (Nb1N)-(Nb2_(42)), Tet-linked heterodimer of VHH72 (Tet3.0 at the N terminus) and H11-H4 (Tet3.0 at Gly42) | – | – | – | 3.93 nM | 0.000593 s⁻¹ | 151000 M⁻¹ s⁻¹ |
| (Nb1_(13))2, Tet-linked homodimer of VHH72 with Tet3.0 at Gln13 | – | – | – | 46 nM | 0.00156 s⁻¹ | 33800 M⁻¹ s⁻¹ |
| (Nb1_(42))2, Tet-linked homodimer of VHH72 with Tet3.0 at Gly42 | – | – | – | 27.5 nM | 0.00201 s⁻¹ | 73100 M⁻¹ s⁻¹ |
| Nb1-Nb1 tail-to-head genetically linked dimer of VHH72 | – | 0.00314 s⁻¹ | 35400 M⁻¹ s⁻¹ | – | – | – |
| Nb1-Nb1-Nb1 tail-to-head genetically linked trimer of VHH72 | 27.9 nM | 0.00156 s⁻¹ | 57900 M⁻¹ s⁻¹ | – | – | – |

Reference: publication PMC9075797
